Reference: patent US20180044393A1 (INSERM INSTITUT NATIONAL DE LA SANT ET DE LA RECHERCHE M …, published 2018)
Residue numbers refer to the chain shown, from its start. Positions of bridges follow the written chain, without caps; N, C: chain ends. No end group written: not given here. *: point of attachment. 125I = [125I]*

Columns and labels:
Experiment in all cases: 125I-OxA binding on CHO-S cells expressing the OX1R mutant
[1] = molecular target: T1, OX1R L320A (human, UniProt O43613 1-425)
T1 construct: site-directed mutant (TM6) stably expressed in CHO-S cells; not shown: YFP from vector pEYFP-N2 fused at the C-terminus
T1 chain: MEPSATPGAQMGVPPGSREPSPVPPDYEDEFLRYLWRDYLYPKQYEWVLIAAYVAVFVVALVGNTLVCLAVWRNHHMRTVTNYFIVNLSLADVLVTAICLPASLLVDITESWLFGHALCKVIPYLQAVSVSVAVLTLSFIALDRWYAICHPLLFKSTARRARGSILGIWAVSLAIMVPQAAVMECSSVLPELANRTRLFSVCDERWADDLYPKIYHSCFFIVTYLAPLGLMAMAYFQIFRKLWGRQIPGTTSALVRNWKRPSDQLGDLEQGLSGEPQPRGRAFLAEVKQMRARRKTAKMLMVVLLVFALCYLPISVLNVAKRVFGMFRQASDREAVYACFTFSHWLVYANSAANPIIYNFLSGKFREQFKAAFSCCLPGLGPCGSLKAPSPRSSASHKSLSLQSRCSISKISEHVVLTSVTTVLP
Procedure: (§1) CHO—S cells expressing recombinant native or mutated OX1R were grown as previously described (El Firar et al., 2009) and maintained at 37° C. in a humidified 5% CO₂/air incubator. ¹²⁵I-orexia-A (74 TBq/mmol) was prepared as previously described (El Firar et al., 2009). […] Free peptides were removed by 2 cell washing cycles with PBS. […] Data were analyzed using the GraphPad software (http://www.graphpad.com).
(§2) All residues of OX1R fulfilling this condition were mutated to alanine by site-directed mutagenesis (Table II).

[2] = molecular target: T2, OX1R P101A (human, UniProt O43613 1-425)
T2 construct: site-directed mutant (TM2) stably expressed in CHO-S cells; not shown: YFP from vector pEYFP-N2 fused at the C-terminus
T2 chain: T1 chain with P101A, A320L
Procedure: as §1, §2

[3] = molecular target: T3, OX1R V121A (human, UniProt O43613 1-425)
T3 construct: site-directed mutant (TM3) stably expressed in CHO-S cells; not shown: YFP from vector pEYFP-N2 fused at the C-terminus
T3 chain: T1 chain with V121A, A320L
Procedure: as §1, §2

[4] = molecular target: T4, OX1R N318A (human, UniProt O43613 1-425)
T4 construct: site-directed mutant (TM6) stably expressed in CHO-S cells; not shown: YFP from vector pEYFP-N2 fused at the C-terminus
T4 chain: T1 chain with N318A, A320L
Procedure: as §1, §2

Measured: binding result

B1: 125I-orexin-A (peptide, UniProt O43612 34-66, looked up)
peptide: QPLPDCCRQKTCSCRLY(125I)ELLHGAGNHAAGILTL
modifications: disulfide 6-12, 7-14; not fully specified (residue 1, C-terminus)
notes: mature; also called OxA
binds: all assays above
